PMC7388177 (Cell reports, 2020)
Values belong to the binder of their own block, whether it stands above or below them.

What was measured:
[1] = molecular target: T1, human ATG9A, purified in LMNG (mVenus-His tag cleaved) (human), Q7Z3C6; experiment: negative-stain EM; details: remark: other sources report otherwise
T1 chain: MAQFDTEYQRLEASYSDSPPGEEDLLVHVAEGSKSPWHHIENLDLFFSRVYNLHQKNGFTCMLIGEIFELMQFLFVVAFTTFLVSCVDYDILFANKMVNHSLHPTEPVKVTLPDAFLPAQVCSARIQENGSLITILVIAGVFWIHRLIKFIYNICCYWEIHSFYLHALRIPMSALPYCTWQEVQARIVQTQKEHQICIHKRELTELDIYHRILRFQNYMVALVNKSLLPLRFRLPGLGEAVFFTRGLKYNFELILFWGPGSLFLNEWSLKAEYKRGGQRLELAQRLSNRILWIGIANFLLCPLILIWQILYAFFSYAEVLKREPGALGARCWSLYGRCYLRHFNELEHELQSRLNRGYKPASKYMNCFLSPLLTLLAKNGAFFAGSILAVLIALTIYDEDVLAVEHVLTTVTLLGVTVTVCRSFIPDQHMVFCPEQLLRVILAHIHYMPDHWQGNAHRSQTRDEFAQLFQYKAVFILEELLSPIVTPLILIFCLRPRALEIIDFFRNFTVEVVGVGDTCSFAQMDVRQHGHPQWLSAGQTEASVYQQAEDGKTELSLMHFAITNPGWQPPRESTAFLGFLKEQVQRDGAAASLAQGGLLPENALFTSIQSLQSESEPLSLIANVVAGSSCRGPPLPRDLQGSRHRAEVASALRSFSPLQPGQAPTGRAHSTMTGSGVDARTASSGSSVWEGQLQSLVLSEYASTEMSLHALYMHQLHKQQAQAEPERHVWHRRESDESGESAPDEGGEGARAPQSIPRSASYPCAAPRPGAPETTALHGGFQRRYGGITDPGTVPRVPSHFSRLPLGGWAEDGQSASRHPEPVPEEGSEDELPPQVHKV

[2] = molecular target: T2, ATG9A-mVenus fusion protein in membranes (human), Q7Z3C6; experiment: cross-linking; details: remark: other sources report otherwise
T2 chain: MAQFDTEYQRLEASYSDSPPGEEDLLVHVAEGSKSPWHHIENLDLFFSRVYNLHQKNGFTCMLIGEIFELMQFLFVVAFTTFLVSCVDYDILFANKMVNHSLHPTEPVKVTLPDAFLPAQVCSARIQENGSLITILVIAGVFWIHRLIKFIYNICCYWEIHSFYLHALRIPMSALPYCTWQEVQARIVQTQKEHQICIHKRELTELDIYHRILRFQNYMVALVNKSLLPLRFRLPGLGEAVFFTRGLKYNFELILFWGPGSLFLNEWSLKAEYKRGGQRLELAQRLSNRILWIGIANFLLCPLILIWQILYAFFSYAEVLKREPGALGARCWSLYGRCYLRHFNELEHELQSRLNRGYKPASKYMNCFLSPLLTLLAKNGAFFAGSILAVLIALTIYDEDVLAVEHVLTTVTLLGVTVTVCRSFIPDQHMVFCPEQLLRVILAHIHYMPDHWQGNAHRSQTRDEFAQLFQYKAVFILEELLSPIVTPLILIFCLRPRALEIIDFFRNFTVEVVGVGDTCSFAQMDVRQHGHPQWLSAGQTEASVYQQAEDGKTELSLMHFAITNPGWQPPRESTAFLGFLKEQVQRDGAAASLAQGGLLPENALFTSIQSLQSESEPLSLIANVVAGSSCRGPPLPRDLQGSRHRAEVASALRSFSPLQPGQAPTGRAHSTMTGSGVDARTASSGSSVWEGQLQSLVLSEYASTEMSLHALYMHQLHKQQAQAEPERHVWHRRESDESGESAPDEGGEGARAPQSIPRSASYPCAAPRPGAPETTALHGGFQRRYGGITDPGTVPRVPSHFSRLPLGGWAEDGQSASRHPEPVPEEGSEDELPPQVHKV

[3] = molecular target: T3, endogenous ATG9A of HeLa cells (human (endogenous in HeLa)), Q7Z3C6; experiment: cross-linking; details: remark: other sources report otherwise
T3 chain: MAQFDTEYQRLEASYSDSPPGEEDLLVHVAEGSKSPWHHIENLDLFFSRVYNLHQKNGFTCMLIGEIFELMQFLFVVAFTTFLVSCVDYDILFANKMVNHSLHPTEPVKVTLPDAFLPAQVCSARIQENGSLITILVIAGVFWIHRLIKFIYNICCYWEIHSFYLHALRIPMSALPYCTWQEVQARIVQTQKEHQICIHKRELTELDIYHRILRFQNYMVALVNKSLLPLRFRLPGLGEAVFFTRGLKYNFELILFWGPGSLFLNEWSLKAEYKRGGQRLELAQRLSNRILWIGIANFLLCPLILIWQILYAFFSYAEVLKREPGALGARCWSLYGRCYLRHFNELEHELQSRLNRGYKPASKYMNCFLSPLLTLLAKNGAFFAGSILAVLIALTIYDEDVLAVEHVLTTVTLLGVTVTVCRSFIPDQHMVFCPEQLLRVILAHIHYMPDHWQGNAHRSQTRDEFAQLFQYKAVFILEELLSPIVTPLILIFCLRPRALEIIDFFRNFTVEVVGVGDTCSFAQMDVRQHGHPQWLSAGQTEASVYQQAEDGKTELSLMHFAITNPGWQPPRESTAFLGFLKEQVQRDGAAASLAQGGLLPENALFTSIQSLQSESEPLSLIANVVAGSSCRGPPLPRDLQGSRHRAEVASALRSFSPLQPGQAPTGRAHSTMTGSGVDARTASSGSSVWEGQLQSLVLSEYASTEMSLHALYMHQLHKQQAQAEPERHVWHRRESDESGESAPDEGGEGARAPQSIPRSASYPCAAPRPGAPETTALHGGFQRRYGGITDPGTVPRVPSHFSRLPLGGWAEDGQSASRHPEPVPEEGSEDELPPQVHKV

[4] = molecular target: the molecule itself; experiment: cross-linking

B1: human ATG9A, purified in LMNG (mVenus-His tag cleaved), Q7Z3C6 1-839 (natural protein)
chain: MAQFDTEYQRLEASYSDSPPGEEDLLVHVAEGSKSPWHHIENLDLFFSRVYNLHQKNGFTCMLIGEIFELMQFLFVVAFTTFLVSCVDYDILFANKMVNHSLHPTEPVKVTLPDAFLPAQVCSARIQENGSLITILVIAGVFWIHRLIKFIYNICCYWEIHSFYLHALRIPMSALPYCTWQEVQARIVQTQKEHQICIHKRELTELDIYHRILRFQNYMVALVNKSLLPLRFRLPGLGEAVFFTRGLKYNFELILFWGPGSLFLNEWSLKAEYKRGGQRLELAQRLSNRILWIGIANFLLCPLILIWQILYAFFSYAEVLKREPGALGARCWSLYGRCYLRHFNELEHELQSRLNRGYKPASKYMNCFLSPLLTLLAKNGAFFAGSILAVLIALTIYDEDVLAVEHVLTTVTLLGVTVTVCRSFIPDQHMVFCPEQLLRVILAHIHYMPDHWQGNAHRSQTRDEFAQLFQYKAVFILEELLSPIVTPLILIFCLRPRALEIIDFFRNFTVEVVGVGDTCSFAQMDVRQHGHPQWLSAGQTEASVYQQAEDGKTELSLMHFAITNPGWQPPRESTAFLGFLKEQVQRDGAAASLAQGGLLPENALFTSIQSLQSESEPLSLIANVVAGSSCRGPPLPRDLQGSRHRAEVASALRSFSPLQPGQAPTGRAHSTMTGSGVDARTASSGSSVWEGQLQSLVLSEYASTEMSLHALYMHQLHKQQAQAEPERHVWHRRESDESGESAPDEGGEGARAPQSIPRSASYPCAAPRPGAPETTALHGGFQRRYGGITDPGTVPRVPSHFSRLPLGGWAEDGQSASRHPEPVPEEGSEDELPPQVHKV
stoichiometry N [1]: 3

B4: ATG9A-mVenus (N57C + P371C) (natural protein, human, UniProt Q7Z3C6 1-839, looked up)
chain: MAQFDTEYQRLEASYSDSPPGEEDLLVHVAEGSKSPWHHIENLDLFFSRVYNLHQKCGFTCMLIGEIFELMQFLFVVAFTTFLVSCVDYDILFANKMVNHSLHPTEPVKVTLPDAFLPAQVCSARIQENGSLITILVIAGVFWIHRLIKFIYNICCYWEIHSFYLHALRIPMSALPYCTWQEVQARIVQTQKEHQICIHKRELTELDIYHRILRFQNYMVALVNKSLLPLRFRLPGLGEAVFFTRGLKYNFELILFWGPGSLFLNEWSLKAEYKRGGQRLELAQRLSNRILWIGIANFLLCPLILIWQILYAFFSYAEVLKREPGALGARCWSLYGRCYLRHFNELEHELQSRLNRGYKPASKYMNCFLSCLLTLLAKNGAFFAGSILAVLIALTIYDEDVLAVEHVLTTVTLLGVTVTVCRSFIPDQHMVFCPEQLLRVILAHIHYMPDHWQGNAHRSQTRDEFAQLFQYKAVFILEELLSPIVTPLILIFCLRPRALEIIDFFRNFTVEVVGVGDTCSFAQMDVRQHGHPQWLSAGQTEASVYQQAEDGKTELSLMHFAITNPGWQPPRESTAFLGFLKEQVQRDGAAASLAQGGLLPENALFTSIQSLQSESEPLSLIANVVAGSSCRGPPLPRDLQGSRHRAEVASALRSFSPLQPGQAPTGRAHSTMTGSGVDARTASSGSSVWEGQLQSLVLSEYASTEMSLHALYMHQLHKQQAQAEPERHVWHRRESDESGESAPDEGGEGARAPQSIPRSASYPCAAPRPGAPETTALHGGFQRRYGGITDPGTVPRVPSHFSRLPLGGWAEDGQSASRHPEPVPEEGSEDELPPQVHKV
stoichiometry N [4]: 3

B5: ATG9A-mVenus (F68C + N379C) (natural protein, human, UniProt Q7Z3C6 1-839, looked up)
chain: MAQFDTEYQRLEASYSDSPPGEEDLLVHVAEGSKSPWHHIENLDLFFSRVYNLHQKNGFTCMLIGEICELMQFLFVVAFTTFLVSCVDYDILFANKMVNHSLHPTEPVKVTLPDAFLPAQVCSARIQENGSLITILVIAGVFWIHRLIKFIYNICCYWEIHSFYLHALRIPMSALPYCTWQEVQARIVQTQKEHQICIHKRELTELDIYHRILRFQNYMVALVNKSLLPLRFRLPGLGEAVFFTRGLKYNFELILFWGPGSLFLNEWSLKAEYKRGGQRLELAQRLSNRILWIGIANFLLCPLILIWQILYAFFSYAEVLKREPGALGARCWSLYGRCYLRHFNELEHELQSRLNRGYKPASKYMNCFLSPLLTLLAKCGAFFAGSILAVLIALTIYDEDVLAVEHVLTTVTLLGVTVTVCRSFIPDQHMVFCPEQLLRVILAHIHYMPDHWQGNAHRSQTRDEFAQLFQYKAVFILEELLSPIVTPLILIFCLRPRALEIIDFFRNFTVEVVGVGDTCSFAQMDVRQHGHPQWLSAGQTEASVYQQAEDGKTELSLMHFAITNPGWQPPRESTAFLGFLKEQVQRDGAAASLAQGGLLPENALFTSIQSLQSESEPLSLIANVVAGSSCRGPPLPRDLQGSRHRAEVASALRSFSPLQPGQAPTGRAHSTMTGSGVDARTASSGSSVWEGQLQSLVLSEYASTEMSLHALYMHQLHKQQAQAEPERHVWHRRESDESGESAPDEGGEGARAPQSIPRSASYPCAAPRPGAPETTALHGGFQRRYGGITDPGTVPRVPSHFSRLPLGGWAEDGQSASRHPEPVPEEGSEDELPPQVHKV
stoichiometry N [4]: 3

Second part, the binder after the results:

stoichiometry N [2]: 3
B2: ATG9A-mVenus fusion protein in membranes, Q7Z3C6 1-839 (natural protein)
chain: MAQFDTEYQRLEASYSDSPPGEEDLLVHVAEGSKSPWHHIENLDLFFSRVYNLHQKNGFTCMLIGEIFELMQFLFVVAFTTFLVSCVDYDILFANKMVNHSLHPTEPVKVTLPDAFLPAQVCSARIQENGSLITILVIAGVFWIHRLIKFIYNICCYWEIHSFYLHALRIPMSALPYCTWQEVQARIVQTQKEHQICIHKRELTELDIYHRILRFQNYMVALVNKSLLPLRFRLPGLGEAVFFTRGLKYNFELILFWGPGSLFLNEWSLKAEYKRGGQRLELAQRLSNRILWIGIANFLLCPLILIWQILYAFFSYAEVLKREPGALGARCWSLYGRCYLRHFNELEHELQSRLNRGYKPASKYMNCFLSPLLTLLAKNGAFFAGSILAVLIALTIYDEDVLAVEHVLTTVTLLGVTVTVCRSFIPDQHMVFCPEQLLRVILAHIHYMPDHWQGNAHRSQTRDEFAQLFQYKAVFILEELLSPIVTPLILIFCLRPRALEIIDFFRNFTVEVVGVGDTCSFAQMDVRQHGHPQWLSAGQTEASVYQQAEDGKTELSLMHFAITNPGWQPPRESTAFLGFLKEQVQRDGAAASLAQGGLLPENALFTSIQSLQSESEPLSLIANVVAGSSCRGPPLPRDLQGSRHRAEVASALRSFSPLQPGQAPTGRAHSTMTGSGVDARTASSGSSVWEGQLQSLVLSEYASTEMSLHALYMHQLHKQQAQAEPERHVWHRRESDESGESAPDEGGEGARAPQSIPRSASYPCAAPRPGAPETTALHGGFQRRYGGITDPGTVPRVPSHFSRLPLGGWAEDGQSASRHPEPVPEEGSEDELPPQVHKV

stoichiometry N [3]: 3
B3: endogenous ATG9A of HeLa cells, Q7Z3C6 1-839 (natural protein)
chain: MAQFDTEYQRLEASYSDSPPGEEDLLVHVAEGSKSPWHHIENLDLFFSRVYNLHQKNGFTCMLIGEIFELMQFLFVVAFTTFLVSCVDYDILFANKMVNHSLHPTEPVKVTLPDAFLPAQVCSARIQENGSLITILVIAGVFWIHRLIKFIYNICCYWEIHSFYLHALRIPMSALPYCTWQEVQARIVQTQKEHQICIHKRELTELDIYHRILRFQNYMVALVNKSLLPLRFRLPGLGEAVFFTRGLKYNFELILFWGPGSLFLNEWSLKAEYKRGGQRLELAQRLSNRILWIGIANFLLCPLILIWQILYAFFSYAEVLKREPGALGARCWSLYGRCYLRHFNELEHELQSRLNRGYKPASKYMNCFLSPLLTLLAKNGAFFAGSILAVLIALTIYDEDVLAVEHVLTTVTLLGVTVTVCRSFIPDQHMVFCPEQLLRVILAHIHYMPDHWQGNAHRSQTRDEFAQLFQYKAVFILEELLSPIVTPLILIFCLRPRALEIIDFFRNFTVEVVGVGDTCSFAQMDVRQHGHPQWLSAGQTEASVYQQAEDGKTELSLMHFAITNPGWQPPRESTAFLGFLKEQVQRDGAAASLAQGGLLPENALFTSIQSLQSESEPLSLIANVVAGSSCRGPPLPRDLQGSRHRAEVASALRSFSPLQPGQAPTGRAHSTMTGSGVDARTASSGSSVWEGQLQSLVLSEYASTEMSLHALYMHQLHKQQAQAEPERHVWHRRESDESGESAPDEGGEGARAPQSIPRSASYPCAAPRPGAPETTALHGGFQRRYGGITDPGTVPRVPSHFSRLPLGGWAEDGQSASRHPEPVPEEGSEDELPPQVHKV
